Measured values from patent publication US20160272683A1 (Novo Nordisk, published 2016).
Numbered stars: 1 amine (or outer) side, 2 acyl side, 3 side chain; on linkers, the order of the positions; unused ones are H or OH. Ends that are not written are not given here. * marks the point of attachment. C20 diacid = O=C(O)CCCCCCCCCCCCCCCCCCC(=O)*; γGlu = O=C(O)[C@H](CCC(=O)[*:2])N[*:1]

T1: human amylin receptor (human calcitonin receptor + human RAMP3) (human) (UniProt P30988)
T1 sequence (looked up) 1: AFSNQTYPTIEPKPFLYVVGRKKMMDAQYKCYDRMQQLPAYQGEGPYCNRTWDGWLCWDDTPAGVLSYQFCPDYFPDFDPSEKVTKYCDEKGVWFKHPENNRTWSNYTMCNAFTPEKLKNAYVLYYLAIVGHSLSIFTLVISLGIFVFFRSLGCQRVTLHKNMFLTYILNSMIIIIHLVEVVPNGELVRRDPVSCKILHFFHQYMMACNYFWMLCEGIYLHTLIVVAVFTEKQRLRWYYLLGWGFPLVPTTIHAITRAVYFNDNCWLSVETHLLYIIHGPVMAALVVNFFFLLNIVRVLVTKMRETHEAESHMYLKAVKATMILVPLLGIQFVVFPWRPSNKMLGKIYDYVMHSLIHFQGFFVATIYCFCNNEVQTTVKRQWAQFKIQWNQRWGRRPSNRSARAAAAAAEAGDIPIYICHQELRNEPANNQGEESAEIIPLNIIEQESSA
T1 sequence (looked up) 2: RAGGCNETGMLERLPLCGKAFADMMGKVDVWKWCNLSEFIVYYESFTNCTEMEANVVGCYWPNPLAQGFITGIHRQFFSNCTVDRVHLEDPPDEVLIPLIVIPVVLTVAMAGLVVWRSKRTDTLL

T2: human calcitonin receptor on BHK570/CRE-luc cells (human, UniProt P30988 25-474)
T2 sequence (looked up): T1 sequence (looked up) 1

T3: human amylin 3(a) receptor (human calcitonin receptor co-expressed with RAMP-3) on BHK570/CRE-luc cells (human, UniProt P30988 25-474; O60896 24-148)
T3 sequence (looked up) 1: T1 sequence (looked up) 1
T3 sequence (looked up) 2: T1 sequence (looked up) 2

B1: [N-terminal(C20 diacid-gGlu), 2L, 4G, 8L, 9V, 15Q, 21Q, 23Y, 27G, 30S, 31G, 32T, 33Y]mimylin (peptide)
peptide: {C20 diacid-γGlu}-ELSGLSTLVLGRLSQELHELQTYPRTGTGSGTY-NH2
SMILES: CC(C)C[C@H](NC(=O)CNC(=O)[C@H](CO)NC(=O)[C@H](CC(C)C)NC(=O)[C@H](CCC(=O)O)NC(=O)CC[C@H](NC(=O)CCCCCCCCCCCCCCCCCCC(=O)O)C(=O)O)C(=O)N[C@@H](CO)C(=O)N[C@H](C(=O)N[C@@H](CC(C)C)C(=O)N[C@H](C(=O)N[C@@H](CC(C)C)C(=O)NCC(=O)N[C@@H](CCCNC(=N)N)C(=O)N[C@@H](CC(C)C)C(=O)N[C@@H](CO)C(=O)N[C@@H](CCC(N)=O)C(=O)N[C@@H](CCC(=O)O)C(=O)N[C@@H](CC(C)C)C(=O)N[C@@H](Cc1c[nH]cn1)C(=O)N[C@@H](CCC(=O)O)C(=O)N[C@@H](CC(C)C)C(=O)N[C@@H](CCC(N)=O)C(=O)N[C@H](C(=O)N[C@@H](Cc1ccc(O)cc1)C(=O)N1CCC[C@H]1C(=O)N[C@@H](CCCNC(=N)N)C(=O)N[C@H](C(=O)NCC(=O)N[C@H](C(=O)NCC(=O)N[C@@H](CO)C(=O)NCC(=O)N[C@H](C(=O)N[C@@H](Cc1ccc(O)cc1)C(N)=O)[C@@H](C)O)[C@@H](C)O)[C@@H](C)O)[C@@H](C)O)C(C)C)[C@@H](C)O
B2: [N-terminal(C20 diacid-gGlu), des1, 2L, 4Q, 8L, 9V, 15Q, 16R, 19R, 21Q, 23Y, 27Q, 30S, 31Q, 32T, 33Y]mimylin (peptide)
peptide: {C20 diacid-γGlu}-LSQLSTLVLGRLSQRLHRLQTYPRTQTGSQTY-NH2
SMILES: CC(C)C[C@H](NC(=O)CC[C@H](NC(=O)CCCCCCCCCCCCCCCCCCC(=O)O)C(=O)O)C(=O)N[C@@H](CO)C(=O)N[C@@H](CCC(N)=O)C(=O)N[C@@H](CC(C)C)C(=O)N[C@@H](CO)C(=O)N[C@H](C(=O)N[C@@H](CC(C)C)C(=O)N[C@H](C(=O)N[C@@H](CC(C)C)C(=O)NCC(=O)N[C@@H](CCCNC(=N)N)C(=O)N[C@@H](CC(C)C)C(=O)N[C@@H](CO)C(=O)N[C@@H](CCC(N)=O)C(=O)N[C@@H](CCCNC(=N)N)C(=O)N[C@@H](CC(C)C)C(=O)N[C@@H](Cc1c[nH]cn1)C(=O)N[C@@H](CCCNC(=N)N)C(=O)N[C@@H](CC(C)C)C(=O)N[C@@H](CCC(N)=O)C(=O)N[C@H](C(=O)N[C@@H](Cc1ccc(O)cc1)C(=O)N1CCC[C@H]1C(=O)N[C@@H](CCCNC(=N)N)C(=O)N[C@H](C(=O)N[C@@H](CCC(N)=O)C(=O)N[C@H](C(=O)NCC(=O)N[C@@H](CO)C(=O)N[C@@H](CCC(N)=O)C(=O)N[C@H](C(=O)N[C@@H](Cc1ccc(O)cc1)C(N)=O)[C@@H](C)O)[C@@H](C)O)[C@@H](C)O)[C@@H](C)O)C(C)C)[C@@H](C)O
B3: [N-terminal(C20 diacid-gGlu), des1, 4G, 9V, 12K, 15Q, 21Q, 23Y, 25P, 30S, 31G, 32T, 33Y]mimylin (peptide)
peptide: {C20 diacid-γGlu}-ASGLSTAVLGKLSQELHELQTYPPTETGSGTY-NH2
SMILES: CC(C)C[C@H](NC(=O)CNC(=O)[C@H](CO)NC(=O)[C@H](C)NC(=O)CC[C@H](NC(=O)CCCCCCCCCCCCCCCCCCC(=O)O)C(=O)O)C(=O)N[C@@H](CO)C(=O)N[C@H](C(=O)N[C@@H](C)C(=O)N[C@H](C(=O)N[C@@H](CC(C)C)C(=O)NCC(=O)N[C@@H](CCCCN)C(=O)N[C@@H](CC(C)C)C(=O)N[C@@H](CO)C(=O)N[C@@H](CCC(N)=O)C(=O)N[C@@H](CCC(=O)O)C(=O)N[C@@H](CC(C)C)C(=O)N[C@@H](Cc1c[nH]cn1)C(=O)N[C@@H](CCC(=O)O)C(=O)N[C@@H](CC(C)C)C(=O)N[C@@H](CCC(N)=O)C(=O)N[C@H](C(=O)N[C@@H](Cc1ccc(O)cc1)C(=O)N1CCC[C@H]1C(=O)N1CCC[C@H]1C(=O)N[C@H](C(=O)N[C@@H](CCC(=O)O)C(=O)N[C@H](C(=O)NCC(=O)N[C@@H](CO)C(=O)NCC(=O)N[C@H](C(=O)N[C@@H](Cc1ccc(O)cc1)C(N)=O)[C@@H](C)O)[C@@H](C)O)[C@@H](C)O)[C@@H](C)O)C(C)C)[C@@H](C)O
B4: [N-terminal(C20 diacid-gGlu), des1, 4Q, 9V, 15Q, 16R, 19R, 21Q, 23Y, 27Q, 30S, 31Q, 32T, 33Y]mimylin (peptide)
peptide: {C20 diacid-γGlu}-ASQLSTAVLGRLSQRLHRLQTYPRTQTGSQTY-NH2
SMILES: CC(C)C[C@H](NC(=O)[C@H](CCCNC(=N)N)NC(=O)CNC(=O)[C@H](CC(C)C)NC(=O)[C@@H](NC(=O)[C@H](C)NC(=O)[C@@H](NC(=O)[C@H](CO)NC(=O)[C@H](CC(C)C)NC(=O)[C@H](CCC(N)=O)NC(=O)[C@H](CO)NC(=O)[C@H](C)NC(=O)CC[C@H](NC(=O)CCCCCCCCCCCCCCCCCCC(=O)O)C(=O)O)[C@@H](C)O)C(C)C)C(=O)N[C@@H](CO)C(=O)N[C@@H](CCC(N)=O)C(=O)N[C@@H](CCCNC(=N)N)C(=O)N[C@@H](CC(C)C)C(=O)N[C@@H](Cc1c[nH]cn1)C(=O)N[C@@H](CCCNC(=N)N)C(=O)N[C@@H](CC(C)C)C(=O)N[C@@H](CCC(N)=O)C(=O)N[C@H](C(=O)N[C@@H](Cc1ccc(O)cc1)C(=O)N1CCC[C@H]1C(=O)N[C@@H](CCCNC(=N)N)C(=O)N[C@H](C(=O)N[C@@H](CCC(N)=O)C(=O)N[C@H](C(=O)NCC(=O)N[C@@H](CO)C(=O)N[C@@H](CCC(N)=O)C(=O)N[C@H](C(=O)N[C@@H](Cc1ccc(O)cc1)C(N)=O)[C@@H](C)O)[C@@H](C)O)[C@@H](C)O)[C@@H](C)O
B5: [N-terminal(C20 diacid-gGlu), des1, 4G, 9V, 15Q, 21Q, 23aQ, 23bT, 23cY, 30S, 31Q, 32T, 33Y]mimylin (peptide)
peptide: {C20 diacid-γGlu}-ASGLSTAVLGRLSQELHELQTLQTYPRTETGSQTY-NH2
SMILES: CC(C)C[C@H](NC(=O)CNC(=O)[C@H](CO)NC(=O)[C@H](C)NC(=O)CC[C@H](NC(=O)CCCCCCCCCCCCCCCCCCC(=O)O)C(=O)O)C(=O)N[C@@H](CO)C(=O)N[C@H](C(=O)N[C@@H](C)C(=O)N[C@H](C(=O)N[C@@H](CC(C)C)C(=O)NCC(=O)N[C@@H](CCCNC(=N)N)C(=O)N[C@@H](CC(C)C)C(=O)N[C@@H](CO)C(=O)N[C@@H](CCC(N)=O)C(=O)N[C@@H](CCC(=O)O)C(=O)N[C@@H](CC(C)C)C(=O)N[C@@H](Cc1c[nH]cn1)C(=O)N[C@@H](CCC(=O)O)C(=O)N[C@@H](CC(C)C)C(=O)N[C@@H](CCC(N)=O)C(=O)N[C@H](C(=O)N[C@@H](CC(C)C)C(=O)N[C@@H](CCC(N)=O)C(=O)N[C@H](C(=O)N[C@@H](Cc1ccc(O)cc1)C(=O)N1CCC[C@H]1C(=O)N[C@@H](CCCNC(=N)N)C(=O)N[C@H](C(=O)N[C@@H](CCC(=O)O)C(=O)N[C@H](C(=O)NCC(=O)N[C@@H](CO)C(=O)N[C@@H](CCC(N)=O)C(=O)N[C@H](C(=O)N[C@@H](Cc1ccc(O)cc1)C(N)=O)[C@@H](C)O)[C@@H](C)O)[C@@H](C)O)[C@@H](C)O)[C@@H](C)O)C(C)C)[C@@H](C)O

Target: T1, human amylin receptor (human calcitonin receptor + human RAMP3) (human)
Assay: whole-cell competition vs 125I-rat amylin (Assay Va)

Row | IC50 | Binder
1 | 0.511 nM | EASELSTAALGRLSAELHELATLPRTETGPESP-NH2 [mimylin]

Target: T2, human calcitonin receptor on …
Assay: cell-based or functional assay

Row | hCTR funct. EC50 (pM), tested with HSA | Binder
2 | 852 pM | B1
3 | 50 pM | B2
4 | 62 pM | B3
5 | 50 pM | B4
6 | 99 pM | B5

Target: T3, human amylin 3(a) receptor (human …)
Assay: cell-based or functional assay

Row | hAmylin-R funct. EC50 (pM), tested with HSA | Binder
7 | 565 pM | B1
8 | 44 pM | B2
9 | 154 pM | B3
10 | 37 pM | B4
11 | 185 pM | B5
